Test results taken from patent publication US20240350682A1 (FUSION PHARMACEUTICALS, published 2024).

T1: six-transmembrane epithelial antigen of prostate-2 (STEAP2) (human, UniProt Q8NFT2 1-490)
T1 construct: Endogenous STEAP2 on prostate cancer cell lines (LNCaP, C4-2, 22RV1); also called STEAP2 receptor
T1 sequence: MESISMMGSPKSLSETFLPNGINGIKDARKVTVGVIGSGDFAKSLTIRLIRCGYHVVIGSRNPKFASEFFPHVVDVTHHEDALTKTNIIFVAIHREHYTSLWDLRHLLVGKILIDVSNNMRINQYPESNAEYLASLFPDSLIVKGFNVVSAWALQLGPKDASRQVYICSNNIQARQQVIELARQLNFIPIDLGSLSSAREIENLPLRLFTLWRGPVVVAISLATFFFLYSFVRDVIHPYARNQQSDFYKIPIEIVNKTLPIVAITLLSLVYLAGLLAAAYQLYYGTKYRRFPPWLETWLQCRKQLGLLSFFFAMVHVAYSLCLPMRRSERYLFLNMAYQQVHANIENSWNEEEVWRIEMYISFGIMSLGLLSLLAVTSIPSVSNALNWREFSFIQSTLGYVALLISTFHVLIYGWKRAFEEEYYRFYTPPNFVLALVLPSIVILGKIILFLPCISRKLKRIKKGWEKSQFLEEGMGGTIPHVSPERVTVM


What was measured:
[1] = target: T1, six-transmembrane epithelial antigen of …; assay: cell-based binding on LNCaP cells
[2] = target: T1, six-transmembrane epithelial antigen of …; assay: cell binding on LNCaP cells
[3] = target: T1, six-transmembrane epithelial antigen of …; assay: saturation radioligand binding on C4-2 cells (4 °C); specific = total minus nonspecific binding in the presence of excess unlabeled antibody; single-site fit
Method: (§1) The purpose of this assay was to ensure that the radioimmunoconjugates maintained the binding characteristics of the native antibody in STEAP2 expressing cell lines including C4-2, 22RV1 and LNCaP. One day prior to the experiment, cells (1.5-2×10⁵) were seeded in 48-well microplates in 500 μL supplemented medium. At the start of the assay, cells were washed with PBS once and then treated with either Binding Buffer or 5 μM cold antibody [total binding (TB) and non-specific binding (NSB) respectively]. Plates were incubated at 4° C. for about one hour with mild shaking. Following incubation, both […] and NSB cells were treated with increasing concentrations of [¹⁷⁷Lu]-STEAP2 (40A3-LO11) or [¹⁷⁷Lu]-STEAP2 (40A3-LO14) (0.098 nM to 50 nM) and were incubated at 4° C. for about two hours with mild shaking.
(§2) Following incubation, the cells were washed twice with PBS and were then lysed with 1% Triton-X-100. The lysates were transferred to gamma counting tubes and run along with the standard of [¹⁷⁷Lu]-STEAP2 (40A3-LO11) or [¹⁷⁷Lu]-STEAP2 (40A3-LO14) on the Wizard 1470 gamma counter to determine the amount of radioactivity in counts per minute (CPM) for each lysate. The remaining lysate from each well (25 μL) was used for analyzing the protein content using a standard protein quantification assay.

[4] = target: T1, six-transmembrane epithelial antigen of …; assay: radioligand saturation binding on LNCaP cells, single-site fit of specific binding
Method: as §1, §2

[5] = target: T1, six-transmembrane epithelial antigen of …; assay: saturation radioligand binding on 22RV1 cells (4 °C); specific = total minus nonspecific binding in the presence of excess unlabeled antibody; single-site fit
Method: as §1, §2

[6] = target: T1, six-transmembrane epithelial antigen of …; assay: radioligand saturation binding on 22RV1 cells, single-site fit of specific binding
Method: as §1, §2

[7] = target: T1, six-transmembrane epithelial antigen of …; assay: radioligand saturation binding on C4-2 cells, single-site fit of specific binding
Method: as §1, §2

[8] = target: T1, six-transmembrane epithelial antigen of …; assay: saturation radioligand binding on LNCaP cells (4 °C); specific = total minus nonspecific binding in the presence of excess unlabeled antibody; single-site fit
Method: as §1, §2

| fold improvement in binding relative to 40A3-LO7 [1] | EC50 [2] | Kd [3] | Kd [4] | Kd [5] | Kd [6] | Kd [7] | Kd [8] | Binder |
| --- | --- | --- | --- | --- | --- | --- | --- | --- |
| 26 fold | 1.67 nM | – | – | – | – | – | – | 40A3-LO14 (IgG1-TM) (antibody, V domains shown, Human IgG1 kappa with reduced effector function (IgG1-TM); also called 40A3GL-LO14; 40A3-LO14 hIgG-TM) VH: QVQLQQSGPGLVKPSQTLSLTCAISGDSVSRNSAVWNWIRQSPSRGLEWLGRTYYRSKWYNDYAPSVKSRITINPDTSKNQFSLQLNSVTPEDTAVYYCARGLRQNQFYYYMDVWGKGTTVTVSS VL: not shown |
| – | – | 2.82 nM | ~0.79 nM | 3.26 nM | ~3.2 nM | ~2.8 nM | – | [177Lu]-STEAP2 (40A3-LO14) (antibody, human IgG1, kappa, V domains shown, 177Lu complex of the DOTA chelate of Compound C (PEG3 linker) conjugated to the antibody through its tetrafluorophenyl ester; sites and chain not stated; typical chelate to antibody ratios 5-5.5, also called [177Lu]-Compound C-anti-STEAP2 conjugate; [177Lu]-DOTA-anti-STEAP2 conjugate) VH: QVQLQQSGPGLVKPSQTLSLTCAISGDSVSRNSAVWNWIRQSPSRGLEWLGRTYYRSKWYNDYAPSVKSRITINPDTSKNQFSLQLNSVTPEDTAVYYCARGLRQNQFYYYMDVWGKGTTVTVSS VL: not shown |
| – | 2.38 nM | – | – | – | – | – | – | 40A3-LO11 (IgG1-TM) (antibody, V domains shown) VH: QVQLQQSGPGLVKPSQTLSLTCAISGDSVSRNSAVWNWIRQSPSRGLEWLGRTYYRSKWYNDYAPSVKSRITINPDTSKNQFSLQLNSVTPEDTAVYYCARGLLQNQFYYYMDVWGKGTTVTVSS VL: not shown |
| – | – | 6.58 nM | ~1.2 nM | 6.77 nM | ~6.7 nM | ~6.9 nM | 1.24 nM | [177Lu]-STEAP2 (40A3-LO11) (antibody, human IgG1, kappa, V domains shown, 177Lu complex of the DOTA chelate of Compound C (PEG3 linker) conjugated to the antibody; sites, chain and ratio not stated for this antibody, Radioimmunoconjugate of 40A3-LO11; also called [177Lu]-Compound C-anti-STEAP2 conjugate) VH: QVQLQQSGPGLVKPSQTLSLTCAISGDSVSRNSAVWNWIRQSPSRGLEWLGRTYYRSKWYNDYAPSVKSRITINPDTSKNQFSLQLNSVTPEDTAVYYCARGLLQNQFYYYMDVWGKGTTVTVSS VL: not shown |
